Results published in US8287851B2, “Use of interleukin 17E for the treatment of cancer” (Lorus Therapeutics Inc., priority 2005, dated 2012).
Blank lines part the entries; values can stand above or below the molecule they belong to.

Assays:
[1] = target: T1, IL17BR interaction with protein tyrosine kinase Lyn (Mus musculus, UniProt Q9JIP3); assay: Coimmunoprecipitation of Lyn and IL17BR in WEHI-231 cells; assay type: cell-based; conditions: 0.1 μg per 5×10^6 WEHI-231 cells, 5 minutes at 37° C.
T1 construct: using the B cell lymphoma cell line WEHI-231; endogenous in cells; host or cells: WEHI-231 B cell lymphoma cells
T1 sequence (Q9JIP3 18-499): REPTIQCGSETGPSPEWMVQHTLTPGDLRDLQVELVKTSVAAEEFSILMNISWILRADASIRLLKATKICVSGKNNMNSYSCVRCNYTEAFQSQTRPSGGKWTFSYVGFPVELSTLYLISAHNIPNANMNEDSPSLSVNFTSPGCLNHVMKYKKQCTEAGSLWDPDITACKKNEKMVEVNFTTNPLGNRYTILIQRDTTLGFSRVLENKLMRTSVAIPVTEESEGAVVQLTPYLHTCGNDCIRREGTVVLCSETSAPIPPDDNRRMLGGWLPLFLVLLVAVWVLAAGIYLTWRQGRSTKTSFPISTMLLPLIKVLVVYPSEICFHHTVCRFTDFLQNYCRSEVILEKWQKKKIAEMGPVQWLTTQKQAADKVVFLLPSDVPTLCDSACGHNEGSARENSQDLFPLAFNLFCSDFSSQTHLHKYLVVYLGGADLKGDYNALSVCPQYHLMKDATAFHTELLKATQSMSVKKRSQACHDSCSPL
Description: The effect of interleukin 17E on the induction of interaction of its receptor IL17BR with the protein tyrosine kinase Lyn was examined using the B cell lymphoma cell line WEHI-231.
A total of 5×10^6 cells per sample were incubated with 0.1 μg of human IL17E (hIL-17E) for 5 minutes at 37° C. Cells were lysed in lysis buffer for 30 minutes on ice, followed by centrifugation for 10 minutes. The tyrosine kinase Lyn was immunoprecipitated from 350 μg of protein lysate using rabbit anti-Lyn antibodies coupled to Protein A Sepharose beads. Immunoprecipitated samples containing approximately 25 μg of protein were separated by SDS-PAGE, followed by transfer to membranes for Western blotting.
For detection of phosphorylated Lyn, blots were incubated with anti-phosphotyrosine antibodies, followed by horseradish peroxidase (HRP)-conjugated anti-mouse antibodies.
For detection of IL17BR, blots were incubated with biotin-conjugated-rat anti-IL17BR antibodies, followed by HRP-conjugated streptavidin.
To assess equivalent loading of Lyn, blots were incubated with rabbit anti-Lyn antibodies, followed by HRP-conjugated-anti-rabbit antibodies.
All blots were exposed to autoradiography film and developed to detect chemiluminescence.

IL-5 = assay: Serum IL-5 in tumour-engrafted mice (ELISA); assay type: in vivo, CD1-nude mice
Description: The expression of IL-5 in serum was examined in tumour-engrafted mice treated with IL-17E. CD1-nude mice were engrafted with either C8161 human melanoma cells or MiaPaCa2 pancreatic cancer cells and treated with either PBS or murine IL-17E as described previously. Serum samples were collected individually from each mouse at the endpoint of the experiment, and IL-5 levels were determined by ELISA assay (BD OptEIA; BD Biosciences), according to the manufacturer's instructions. Immunoassay plates were coated with anti-mouse IL-5 monoclonal antibody as a capture antibody and incubated with serial dilutions of mouse sera. Plates were washed three times with wash buffer and blocked for 1 hr at room temp. Plates were incubated with biotinylated anti-mouse IL-5 monoclonal antibody and avidin-horseradish peroxidase conjugate for 1 hour, followed by seven washes. Substrate solution was added for 30 minutes, followed by stop solution, prior to measurement of absorbance (450/570 nm). Statistical analysis was performed to compare IL-5 levels. P values <0.05 were considered to be significant.

coimmunoprecipitation of Lyn and IL17BR [1]: coimmunoprecipitated
B1: human IL-17E: Recombinant human IL-17E from PeproTech; two 145 amino acid chains, predominant form starting at Tyr 33 of GenBank AAG40848 (protein, listed as Homo sapiens)
chain: YSHWPSCCPSKGQDTSEELLRWSTVPVPPLEPARPNRHPESCRASEDGPLNSRAISPWRYELDRDLNRLPQDLYHARCLCPHCVSLQTGSHMDPRGNSELLYHNQTVFYRRPCHGEKGTHKGYCLERRLYRVSLACVCVRPRVMG

B2: murine IL-17E: Murine IL-17E from R&D Systems; predominant form starting at Val 17 of GenBank NP 542767 (protein)
chain: VSLRIQEGCSHLPSCCPSKEQEPPEEWLKWSSASVSPPEPLSHTHHAESCRASKDGPLNSRAISPWSYELDRDLNRVPQDLYHARCLCPHCVSLQTGSHMDPLGNSVPLYHNQTVFYRRPCHGEEGTHRRYCLERRLYRVSLACVCVRPRVMA
serum levels of IL-5 as compared to PBS (IL-5; mice engrafted with human melanoma C8161 cells): significantly higher
serum levels of IL-5 as compared to PBS (IL-5; mice engrafted with human pancreatic cancer MiaPaCa2 cells): significantly higher
